This is an account of results in the array DNA melting data of Ke et al..

The Tm is the temperature at which the thermal transition is half complete.

The series can be described thus: melting temperature; melt of duplexes. Conditions: sodium 0.0675 M; strand 1 µM.
Consider “CGACGTGCCTTATGTGCTG+CAGCACATGATGCACGTCG ((((((((.(.((((((((+)))))))).).))))))))”, for which the Tm was 50.1 °C.
The figure for “CGACGTGCGTTATGTGCTG+CAGCACATCGGGCACGTCG ((((((((...((((((((+))))))))...))))))))” is 48.6 °C; for “CGACGTGCGGAATGTGCTG+CAGCACATTGAGCACGTCG ((((((((..(((((((((+)))))))))..))))))))” it is 56.2 °C; for “CGACGTGCCGAATGTGCTG+CAGCACATCGTGCACGTCG ((((((((...((((((((+))))))))...))))))))” it is 51.9 °C.
Then “CGACGTGCCATATGTGCTG+CAGCACATCTCGCACGTCG ((((((((.(.((((((((+)))))))).).))))))))”, with 47.7 °C; and “CGACGTGCATCATGTGCTG+CAGCACATCGTGCACGTCG (((((((((..((((((((+))))))))..)))))))))”, with 47.2 °C; and “CGACGTGCGAAATGTGCTG+CAGCACATTCGGCACGTCG ((((((((..(((((((((+)))))))))..))))))))”, with 53.7 °C.
Regarding “CGACGTGCTGCATGTGCTG+CAGCACATAGCGCACGTCG ((((((((...((((((((+))))))))...))))))))”, the melting temperature (Tm) amounted to 54.2 °C.
The figure for “CGACGTGCAATATGTGCTG+CAGCACATGGTGCACGTCG (((((((((..((((((((+))))))))..)))))))))” is 51 °C.
The figure for “CGACGTGCTACATGTGCTG+CAGCACATGAAGCACGTCG (((((((((.(((((((((+))))))))).)))))))))” is 58.3 °C.
Then “CGACGTGCCCCATGTGCTG+CAGCACATCATGCACGTCG ((((((((...((((((((+))))))))...))))))))”, with 46.5 °C; and “CGACGTGCTGGATGTGCTG+CAGCACATTGTGCACGTCG ((((((((...((((((((+))))))))...))))))))”, with 48.3 °C; and “CGACGTGCCTAATGTGCTG+CAGCACATGACGCACGTCG ((((((((.(.((((((((+)))))))).).))))))))”, with 46.4 °C.
Consider “CGACGTGCTACATGTGCTG+CAGCACATCTTGCACGTCG ((((((((.(.((((((((+)))))))).).))))))))”, for which the Tm came to 49.3 °C.
Then “CGACGTGCTGTATGTGCTG+CAGCACATGCCGCACGTCG ((((((((.(.((((((((+)))))))).).))))))))”, with 52.8 °C; and “CGACGTGCGTCATGTGCTG+CAGCACATTCAGCACGTCG ((((((((...((((((((+))))))))...))))))))”, with 51.3 °C; and “CGACGTGCCGTATGTGCTG+CAGCACATGCGGCACGTCG ((((((((((.((((((((+)))))))).))))))))))”, with 62.4 °C.
Then “CGACGTGCCAAATGTGCTG+CAGCACATACTGCACGTCG ((((((((...((((((((+))))))))...))))))))”, with 47.4 °C.
On to “CGACGTGCTATATGTGCTG+CAGCACATAAGGCACGTCG ((((((((..(((((((((+)))))))))..))))))))”, for which the Tm is 52.5 °C.
The figure for “CGACGTGCCTGATGTGCTG+CAGCACATGATGCACGTCG ((((((((.(.((((((((+)))))))).).))))))))” is 49.4 °C.
In the case of “CGACGTGCCTAATGTGCTG+CAGCACATTATGCACGTCG ((((((((.((((((((((+)))))))))).))))))))”, the Tm amounted to 54 °C.
Then “CGACGTGCTCGATGTGCTG+CAGCACATATCGCACGTCG ((((((((...((((((((+))))))))...))))))))”, with 47.8 °C; and “CGACGTGCTCCATGTGCTG+CAGCACATGGTGCACGTCG ((((((((.((((((((((+)))))))))).))))))))”, with 58.9 °C; and “CGACGTGCTCAATGTGCTG+CAGCACATCAGGCACGTCG ((((((((...((((((((+))))))))...))))))))”, with 50.5 °C.
Regarding “CGACGTGCTGTATGTGCTG+CAGCACATGATGCACGTCG ((((((((...((((((((+))))))))...))))))))”, the Tm stood at 51.3 °C.
The figure for “CGACGTGCGTGATGTGCTG+CAGCACATTGAGCACGTCG ((((((((...((((((((+))))))))...))))))))” is 54.7 °C; for “CGACGTGCCTGATGTGCTG+CAGCACATTTCGCACGTCG ((((((((...((((((((+))))))))...))))))))” it is 48.2 °C; for “CGACGTGCAATATGTGCTG+CAGCACATGCGGCACGTCG ((((((((...((((((((+))))))))...))))))))” it is 49.7 °C.
The figure for “CGACGTGCAGTATGTGCTG+CAGCACATTGTGCACGTCG (((((((((..((((((((+))))))))..)))))))))” is 48.6 °C.
With “CGACGTGCATTATGTGCTG+CAGCACATTAGGCACGTCG ((((((((.(.((((((((+)))))))).).))))))))”, the Tm is 51.9 °C.
The figure for “CGACGTGCAGTATGTGCTG+CAGCACATCAGGCACGTCG ((((((((...((((((((+))))))))...))))))))” is 50.2 °C; for “CGACGTGCAAGATGTGCTG+CAGCACATCGTGCACGTCG (((((((((.(((((((((+))))))))).)))))))))” it is 57.4 °C; for “CGACGTGCATCATGTGCTG+CAGCACATCCAGCACGTCG ((((((((...((((((((+))))))))...))))))))” it is 46.6 °C.
The figure for “CGACGTGCGATATGTGCTG+CAGCACATAATGCACGTCG ((((((((..(((((((((+)))))))))..))))))))” is 54 °C.
The figure for “CGACGTGCAGTATGTGCTG+CAGCACATCGAGCACGTCG ((((((((...((((((((+))))))))...))))))))” is 50.1 °C; for “CGACGTGCCCAATGTGCTG+CAGCACATGTTGCACGTCG ((((((((...((((((((+))))))))...))))))))” it is 49.4 °C.
As for “CGACGTGCTTCATGTGCTG+CAGCACATTCAGCACGTCG (((((((((..((((((((+))))))))..)))))))))”, the Tm amounted to 50.7 °C.
Then “CGACGTGCTGGATGTGCTG+CAGCACATCCAGCACGTCG (((((((((((((((((((+)))))))))))))))))))”, with 65.5 °C.
With “CGACGTGCACGATGTGCTG+CAGCACATACCGCACGTCG ((((((((...((((((((+))))))))...))))))))”, the Tm worked out at 43.6 °C.
The figure for “CGACGTGCTGTATGTGCTG+CAGCACATTCAGCACGTCG ((((((((((.((((((((+)))))))).))))))))))” is 57.5 °C; for “CGACGTGCGCGATGTGCTG+CAGCACATTCGGCACGTCG ((((((((...((((((((+))))))))...))))))))” it is 53.2 °C; for “CGACGTGCTGCATGTGCTG+CAGCACATATTGCACGTCG ((((((((...((((((((+))))))))...))))))))” it is 49.3 °C.
Then “CGACGTGCCTAATGTGCTG+CAGCACATGAGGCACGTCG ((((((((((.((((((((+)))))))).))))))))))”, with 58.5 °C; and “CGACGTGCTAGATGTGCTG+CAGCACATGCCGCACGTCG ((((((((...((((((((+))))))))...))))))))”, with 49.2 °C; and “CGACGTGCAATATGTGCTG+CAGCACATGAGGCACGTCG ((((((((...((((((((+))))))))...))))))))”, with 51.3 °C.
Regarding “CGACGTGCGTTATGTGCTG+CAGCACATTTTGCACGTCG ((((((((...((((((((+))))))))...))))))))”, the Tm stood at 49.7 °C.
Then “CGACGTGCATGATGTGCTG+CAGCACATAGTGCACGTCG (((((((((..((((((((+))))))))..)))))))))”, with 49.6 °C.
The figure for “CGACGTGCAGGATGTGCTG+CAGCACATTACGCACGTCG ((((((((...((((((((+))))))))...))))))))” is 50.7 °C.
Then “CGACGTGCAGTATGTGCTG+CAGCACATGCGGCACGTCG ((((((((.(.((((((((+)))))))).).))))))))”, with 55.3 °C.
Take “CGACGTGCAGGATGTGCTG+CAGCACATGCCGCACGTCG ((((((((.(.((((((((+)))))))).).))))))))”: the Tm worked out at 54 °C.
The figure for “CGACGTGCTGTATGTGCTG+CAGCACATGCAGCACGTCG ((((((((((.((((((((+)))))))).))))))))))” is 60.3 °C.
Then “CGACGTGCTGGATGTGCTG+CAGCACATCAAGCACGTCG (((((((((.(((((((((+))))))))).)))))))))”, with 59 °C; and “CGACGTGCTGTATGTGCTG+CAGCACATATTGCACGTCG ((((((((..(((((((((+)))))))))..))))))))”, with 52.7 °C.
The figure for “CGACGTGCGATATGTGCTG+CAGCACATTCTGCACGTCG ((((((((...((((((((+))))))))...))))))))” is 51.5 °C.
As to “CGACGTGCACCATGTGCTG+CAGCACATGGGGCACGTCG ((((((((.((((((((((+)))))))))).))))))))”, the Tm is 62.8 °C.
Then “CGACGTGCACTATGTGCTG+CAGCACATGTCGCACGTCG ((((((((...((((((((+))))))))...))))))))”, with 46.4 °C; and “CGACGTGCGCCATGTGCTG+CAGCACATTACGCACGTCG (((((((((..((((((((+))))))))..)))))))))”, with 52.3 °C.
“CGACGTGCGTGATGTGCTG+CAGCACATGACGCACGTCG ((((((((((.((((((((+)))))))).))))))))))”: the Tm was 57.8 °C.
The figure for “CGACGTGCGCCATGTGCTG+CAGCACATTTGGCACGTCG ((((((((...((((((((+))))))))...))))))))” is 47.4 °C; for “CGACGTGCATGATGTGCTG+CAGCACATTCAGCACGTCG ((((((((...((((((((+))))))))...))))))))” it is 51.1 °C.
As to “CGACGTGCAGCATGTGCTG+CAGCACATGCAGCACGTCG ((((((((.((((((((((+)))))))))).))))))))”, the Tm was found to be 60.8 °C.
Turning to “CGACGTGCGGGATGTGCTG+CAGCACATGAGGCACGTCG ((((((((...((((((((+))))))))...))))))))”, the Tm came to 51.9 °C.
As for “CGACGTGCAAGATGTGCTG+CAGCACATTGGGCACGTCG ((((((((...((((((((+))))))))...))))))))”, the Tm was determined as 51.5 °C.
Then “CGACGTGCAGAATGTGCTG+CAGCACATCACGCACGTCG ((((((((...((((((((+))))))))...))))))))”, with 50.1 °C; and “CGACGTGCCGTATGTGCTG+CAGCACATTGTGCACGTCG ((((((((...((((((((+))))))))...))))))))”, with 45.5 °C.
The figure for “CGACGTGCTGAATGTGCTG+CAGCACATGAAGCACGTCG (((((((((..((((((((+))))))))..)))))))))” is 59.3 °C.
